Experimental data as given in patent US20140205597A1 (published 2014).

Assays:
[1] = target: T1, purified interference factor(s) from serum of Donor B; assay: Biacore, immobilized interference factor
T1 construct: text names Donors 8, 19 and 30

[2] = target: T2, purified interference factor(s) from serum of Donor A; assay: Biacore, immobilized interference factor
T2 construct: text names Donors 8, 19 and 30

[3] = target: T3, monoclonal antibody 21-4-3; assay: Biacore, captured 21-4-3
T3 construct: mouse IgG1 heavy chain, kappa light chain; also called mAb21-4-3; produced by hybridoma ABH0015 (LMBP-9680-CB)
Experimental: Binding measurements were performed using a Biacore T100 using a CM5 T120416 sensor chip, with running buffer HBS-EP+, 25° C. […] The anti-mouse IgG used was a polyclonal rabbit anti-mouse IgG antibodies reacting with all IgG subclasses, IgA and IgM (GE Healthcare; Cat#BR-1008-38; Lot#10056316). Immobilisation of the anti-mouse IgG was performed using manual amine coupling using a 7 minute injection of EDC/NHS for activation and a 7 minute injection of 1M ethanolamine HCl pH 8.5 for deactivation (Biacore, amine coupling kit).

[4] = target: T4, purified interference factor(s) from serum of Donor C; assay: Biacore, immobilized interference factor
T4 construct: text names Donors 8, 19 and 30

| Binder | binding vs Reference Sequence (=100%) [1] [%] | binding vs Reference Sequence (=100%) [2] [%] | binding vs Reference Sequence (=100%) [3] [%] | binding vs Reference Sequence (=100%) [4] [%] |
| --- | --- | --- | --- | --- |
| SEQ ID NO 43 (bispecific antibody, Nanobody construct; C-terminal: A) DVQLVESGGGLVQPGGSLRLSCAASGFILDYYAIGWFRQAPGKEREGVLCIDASDDITYYADSVKGRFTISRDNSKNTVYLQMNSLRPEDTAVYYCATPIGLSSSCLLEYDYDYWGQGTLVTVSSGGGGSGGGSEVQLLESGGGLVQPGGSLRLSCAASGFTFRSFGMSWVRQAPGKGPEWVSSISGSGSDTLYADSVKGRFTISRDNSKNTLYLQMNSLRPEDTAVYYCTIGGSLSRSSQGTLVTVSSA | 20 | 3 | 3 |  |
| SEQ ID NO 47 (VHH) VHH: EVQLVESGGGLVQPGGSLRLSCAASGSVFKINVMAWYRQAPGKGRELVAGIISGGSTSYADSVKGRFTISRDNAKNTLYLQMNSLRPEDTAVYYCAFITTESDYDLGRRYWGQGTLVTVSS |  | 1 | 4 |  |
| SEQ ID NO 48 (VHH) VHH: EVQLVESGGGLVQPGGSLRLSCIASGLPFSTKSMGWFRQAPGKEREFVARISPGGTSRYYGDFVKGRFAISRDNAKNTTWLQMNSLKAEDTAVYYCASGERSTYIGSNYYRTNEYDYWGTGTQVTVSS |  | 0 | 3 |  |
| SEQ ID NO 49 (VHH, C-terminal tag plus humanizing mutations) VHH: EVQLLESGGGLVQPGGSLRLSCAASGLPFSTKSMGWFRQAPGKGREFVSRISPGGTSRYYGDFVKGRFTISRDNSKNTLYLQMNSLRAEDTAVYYCASGERSTYIGSNYYRTNEYDYWGQGTLVTVSS |  | 0 | 4 |  |
| SEQ ID NO 42 (VHH, Nanobody construct; C-terminal: A) EVQLVESGGGLVQPGGSLRLSCAASGRTFSYNPMGWFRQAPGKGRELVAAISRTGGSTYYPDSVEGRFTISRDNAKRMVYLQMNSLRAEDTAVYYCAAAGVRAEDGRVRTLPSEYTFWGQGTQVTVSSAAAEVQLVESGGGLVQPGGSLRLSCAASGRTFSYNPMGWFRQAPGKGRELVAAISRTGGSTYYPDSVEGRFTISRDNAKRMVYLQMNSLRAEDTAVYYCAAAGVRAEDGRVRTLPSEYTFWGQGTQVTVSSA | 4 | 1 | 0 |  |
| SEQ ID NO 45 (VHH, mutations: P14A, P41T, S62F, S74A, S82bN, R83K, L108Q) VHH: EVQLVESGGGLVQAGGSLRLSCAASRSIGRLDRMGWYRHRTGEPRELVATITGGSSINYGDFVKGRFTISIDNAKNTVYLQMNNLKPEDTAVYYCNFNKYVTSRDTWGQGTQVTVSS |  | 0 | 22 |  |
| SEQ ID NO 46 (VHH, C-terminal tag) VHH: EVQLVESGGGLVQAGGSLRLSCAASRSIGRLDRMGWYRHRTGEPRELVATITGGSSINYGDFVKGRFTISIDNAKNTVYLQMNNLKPEDTAVYYCNFNKYVTSRDTWGQGTQVTVSS |  | 0 | 2 |  |
| SEQ ID NO 71 (VHH, S113G) VHH: EVQLVESGGGLVQPGGSLRLSCAASRSIGRLDRMGWYRHRPGEPRELVATITGGSSINYGDSVKGRFTISIDNSKNTVYLQMNSLRPEDTAVYYCNFNKYVTSRDTWGQGTLVTVSG | 105 | 88 | 44 | 87 |
| SEQ ID NO 84 (VHH, S112G) VHH: EVQLVESGGGLVQPGGSLRLSCAASRSIGRLDRMGWYRHRPGEPRELVATITGGSSINYGDSVKGRFTISIDNSKNTVYLQMNSLRPEDTAVYYCNFNKYVTSRDTWGQGTLVTVGS | 50 | 84 | 91 | 83 |
| SEQ ID NO 68 (VHH, P14A, L108Q) VHH: EVQLVESGGGLVQAGGSLRLSCAASRSIGRLDRMGWYRHRPGEPRELVATITGGSSINYGDSVKGRFTISIDNSKNTVYLQMNSLRPEDTAVYYCNFNKYVTSRDTWGQGTQVTVSS | 115 | 38 | 26 | 49 |
| SEQ ID NO 66 (VHH, L11S) VHH: EVQLVESGGGSVQPGGSLRLSCAASRSIGRLDRMGWYRHRPGEPRELVATITGGSSINYGDSVKGRFTISIDNSKNTVYLQMNSLRPEDTAVYYCNFNKYVTSRDTWGQGTLVTVSS | 29 | 81 | 48 | 84 |
| SEQ ID NO 83 (VHH, T87A) VHH: EVQLVESGGGLVQPGGSLRLSCAASRSIGRLDRMGWYRHRPGEPRELVATITGGSSINYGDSVKGRFTISIDNSKNTVYLQMNSLRPEDAAVYYCNFNKYVTSRDTWGQGTLVTVSS | 73 | 56 | 79 | 61 |
| SEQ ID NO 67 (VHH, R83K) VHH: EVQLVESGGGLVQPGGSLRLSCAASRSIGRLDRMGWYRHRPGEPRELVATITGGSSINYGDSVKGRFTISIDNSKNTVYLQMNSLKPEDTAVYYCNFNKYVTSRDTWGQGTLVTVSS | 117 | 102 | 101 | 96 |
| SEQ ID NO 82 (VHH, P84A) VHH: EVQLVESGGGLVQPGGSLRLSCAASRSIGRLDRMGWYRHRPGEPRELVATITGGSSINYGDSVKGRFTISIDNSKNTVYLQMNSLRAEDTAVYYCNFNKYVTSRDTWGQGTLVTVSS | 80 | 96 | 56 | 100 |
| SEQ ID NO 72 (VHH, S112G, S113G) VHH: EVQLVESGGGLVQPGGSLRLSCAASRSIGRLDRMGWYRHRPGEPRELVATITGGSSINYGDSVKGRFTISIDNSKNTVYLQMNSLRPEDTAVYYCNFNKYVTSRDTWGQGTLVTVGG | 47 | 70 | 45 | 56 |
| SEQ ID NO 70 (VHH, T110Q) VHH: EVQLVESGGGLVQPGGSLRLSCAASRSIGRLDRMGWYRHRPGEPRELVATITGGSSINYGDSVKGRFTISIDNSKNTVYLQMNSLRPEDTAVYYCNFNKYVTSRDTWGQGTLVQVSS | 105 | 90 | 106 | 98 |
| SEQ ID NO 80 (VHH, T110Q, S112G, S113G) VHH: EVQLVESGGGLVQPGGSLRLSCAASRSIGRLDRMGWYRHRPGEPRELVATITGGSSINYGDSVKGRFTISIDNSKNTVYLQMNSLRPEDTAVYYCNFNKYVTSRDTWGQGTLVQVGG | 5 | 65 | 51 | 58 |
| SEQ ID NO 81 (VHH, L11V) VHH: EVQLVESGGGVVQPGGSLRLSCAASRSIGRLDRMGWYRHRPGEPRELVATITGGSSINYGDSVKGRFTISIDNSKNTVYLQMNSLRPEDTAVYYCNFNKYVTSRDTWGQGTLVTVSS | 50 | 94 | 75 | 89 |
| SEQ ID NO 78 (VHH, Q13R) VHH: EVQLVESGGGLVRPGGSLRLSCAASRSIGRLDRMGWYRHRPGEPRELVATITGGSSINYGDSVKGRFTISIDNSKNTVYLQMNSLRPEDTAVYYCNFNKYVTSRDTWGQGTLVTVSS | 96 | 96 | 1 | 100 |
| SEQ ID NO 65 (VHH, P14A) VHH: EVQLVESGGGLVQAGGSLRLSCAASRSIGRLDRMGWYRHRPGEPRELVATITGGSSINYGDSVKGRFTISIDNSKNTVYLQMNSLRPEDTAVYYCNFNKYVTSRDTWGQGTLVTVSS | 121 | 73 | 23 | 64 |
| SEQ ID NO 69 (VHH, L108Q) VHH: EVQLVESGGGLVQPGGSLRLSCAASRSIGRLDRMGWYRHRPGEPRELVATITGGSSINYGDSVKGRFTISIDNSKNTVYLQMNSLRPEDTAVYYCNFNKYVTSRDTWGQGTQVTVSS | 120 | 80 | 106 | 84 |
| SEQ ID NO 38 (bispecific antibody, Nanobody construct; C-terminal: A) EVQLVESGGGLVQPGGSLRLSCAASGFTFSSYAMSWVRQAPGKGLEWVSGIKSSGDSTRYAGSVKGRFTISRDNAKNTLYLQMNSLRPEDTAVYYCAKSRVSRTGLYTYDNRGQGTLVTVSSGGGGSGGGGSGGGGSGGGGSEVQLVESGGGLVQPGGSLRLSCAASGRTFNNYAMGWFRQAPGKEREFVAAITRSGVRSGVSAIYGDSVKDRFTISRDNAKNTLYLQMNSLRPEDTAVYYCAASAIGSGALRRFEYDYSGQGTLVTVSSA | 25 | 9 | 0 | 7 |
